B1: anti-SARS-CoV-2 antibody 1009 (antibody, V domains shown)
VH: QLQLQESGPGLVKPSQTLSLTCTVSGGSISSGSYYWSWIRQPAGKGLEWIGSIYTSGSTYYNPSLKSRVTISVDTSKNQFSLKLSSVTAADTAVYYCARKNWLQGSFDYWGQGTLVIVSS
VL: NFMLTQPHSVSESPGKTVTISCTRSSGSIANNYVQWYQQRPGSAPTTVIYEDNQRPSGVPDRFSGSIDSSSNSASLTISGLKTEDEADYYCQSYDTSNHGVFGGGTKLTVL
B2: anti-SARS-CoV-2 antibody 923 (antibody, V domains shown)
VH: EVQLVESGGGVVRPGGSLRLSCAASGFIFDDYDMTWVRQAPGKGLEWVSGISWNGGNTGYADSVKGRFTISRDNAKNSLYLQMNSLRAEDTALYHCAVIMSPIPRYSGYDWAGGAFDIWGQGTMVTVSS
VL: SSELTQDPAVSVALGQTVRITCQGDSLRSYYASWYQQKPGQVPILVIYDKNNRPSGIPDRFSGSSSGNTASLTITGAQAEDEADYYCNSRDSSGNAVVFGGGTKLTVL
B3: antibody 276 (antibody, V domains shown)
VH: QVQLQESGPGLVKPSQTLSLTCTVSGDSISSGGYYWSWIRQHPGKGLEWIGYIYYSGSAYYNPSLKSRVTISLDTSKNQFSLKLSSVTAADTAVYYCARDSVAGFSIFDYWGQGTLVTVSS
VL: SSELTQDPAVSVALGQTVRITCQGDSLRSYYASWYQQKPGQAPVRVIYGKNNRPSGIPDRFSGSSSGNTASLTITGAQAEDEADYYCNSWDSSGNHVVFGGGTKLTVL
B4: antibody 295 (antibody, V domains shown)
VH: QVQLQESGPGLVKPSQTLSLTCTVSGGSISSSDYYWSWIRQPPGKGLEWIGYIYYSGSTYYNPSLKSRVTISVDTSKNQFSLKLSSVTAADTAVYYCARVVGYCSSTSCYVDYWGQGTLVTVSS
VL: EIVLTQSPATLSLSPGERVTLSCRASQSVSSYLAWYQQKPGQAPRLLIYDASNRATGIPARFSGSGSGTDFTLTISSLEPEDFAVYYCQQRSNWPPGLTFGGGTKVEIK
B5: antibody 281 (antibody, V domains shown)
VH: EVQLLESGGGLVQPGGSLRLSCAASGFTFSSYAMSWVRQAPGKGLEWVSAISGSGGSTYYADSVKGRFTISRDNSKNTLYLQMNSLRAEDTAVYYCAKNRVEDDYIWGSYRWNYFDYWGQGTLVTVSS
VL: QSALTQPASVSGSPGQSITISCTGTSSDVGSYNLVSWYQQHPGKAPKLMIYEVSKRPSGVSNRFSGSKSGNTASLTISGLQAEDEADYYCCSYAGSSTHVVFGGGTKLTVL
B6: antibody 317 (antibody, V domains shown)
VH: QVQLVQSGAEVKKPGASVKVSCKVSGYTLTELSMHWVRQAPGKGLEWMGGFDPEDGETIYAQKFQGRVTMTEDTSTDTAYMELSSLRSEDTAVYYCASSPAAAGTSQYYYYYGMDVWGQGTTVTVSS
VL: not shown
B7: antibody 288 (antibody, V domains shown)
VH: EVQLVESGGGLVQPGGSLRLSCAASGFTFSSYDMHWVRQATGKGLEWVSAIGTAGDTYYPGSVKGRFTISRENAKNSLYLQMNSLRAGDTAVYYCARGANRDYDILTGYYSYYYYGMDVWGQGTTVTVSS
VL: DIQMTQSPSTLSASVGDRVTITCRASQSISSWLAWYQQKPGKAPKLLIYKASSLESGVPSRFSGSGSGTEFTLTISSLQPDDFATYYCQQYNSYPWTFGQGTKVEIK
B8: antibody 265 (antibody, V domains shown)
VH: EVQLVQSGAEVKKPGATVKVSCKFSGDTFSHYYIHWVQQAPGKGLEWMGLVDPQDGESEYAQKFQGKVTITADTSIDTSYLEVTSLRFDDTAFYFCATRGMSGAFDRWGQGTLVTVSS
VL: DIVMTQSPDSLAVSLGERATINCKSSQSILSTSNNKNYLAWYQQKPGQPPKLLIYWASTRESGVPDRFSGGGSGTDFTLTISSLQAEDVAVYYCQQYYRTAYTTPIYTFGQGTKLEIK
B9: antibody 301 (antibody, V domains shown)
VH: QVQLVQSGAEVKKPGASVKVSCKVSGYTLTELSMHWVRQAPGKGLEWMGGFDPEDGETIYAQKFQGRVTMTEDTSTDTAYMELSSLRSEDTAVYYCATAFCGGDCYPPDALDIWGQGTMVTVSS
VL: DIQMTQSPSSVSASVGDRVTITCRASQGISSWLAWYQQKPGKAPKLLIYAASSLQSGVPSRFSGSGSGTDFTLTISSLQPEDFATYYCQQANSFPLTFGGGTKVEIK
B10: anti-SARS-CoV-2 antibody 933 (antibody, V domains shown)
VH: QVQLVQSGAEVKKPGASVKVSCKASGYTFTTYDINWVRQATGQGLEWMGWMNPNSGYTDSAQKFQGRVTMTRNTSISTAYMELSSLRSEDTAVYYCASGRGVKTYYFDYWGQGTLVTVSS
VL: SYELTQPPSVSVSPGQTASITCSGDKLGDKSACWYQQKPGQSPVLVICQDTKRPSGIPERFSGSNSGNTATLTISGTQAMDEADYYCQAWDSRTVVFGGGTKLTVL
B11: anti-SARS-CoV-2 antibody 1203 (antibody, V domains shown)
VH: QLRLQESGPGLVKPSETLSLTCTVSGGSISSSNFYWGWIRQPPGKGLEWIGSIYYSGSTHYNPSLKSRVTVSVDTSKNQFSLKLSSVTAADTAVYYCARLTYYYDSSGFIRAEPFDYWGQGILVTVSS
VL: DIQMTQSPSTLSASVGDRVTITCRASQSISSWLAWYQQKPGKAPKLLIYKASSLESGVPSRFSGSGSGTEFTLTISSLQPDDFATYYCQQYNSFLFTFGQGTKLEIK
B12: antibody 273 (antibody, V domains shown)
VH: QVQLVQSGAEVKKPGASVKVSCKVSGYTLTELSMHWVRQAPGKGLEWMGGFDPEDGETIYAQKFQGRVTMTEDTSTDTAYMELSSLRSEDTAVYYCATAPGYYDSSAPQPINWFDPWGQGTLVTVSS
VL: QSALTQPASVSGSPGQSITISCTGTSSDVGSYNLVSWYQQHPGKAPKLMIYEVSKRPSGVSNRFSGSKSGNTASLTISGLQAEDEADYYCCSYAGSSTLVFGGGTKLTVL
B13: antibody 300 (antibody, V domains shown)
VH: QVQLVESGGGVVQPGRSLTLSCAASGFTFSSYAMHWVRQAPGKGLEWVALISYDGNNKYYADSVKGRFTFSRDNSKNTLYLQMNSLRAEDTAVYYCARTNSGSYRTAFDYWGQGTLVTVSS
VL: DIQMTQSPSTLSASVGDRVTITCRASQSISIWLAWYQQKPGKAPKLLIYKASSLESGVPSRFSGSGSGTEFTLTISSLQPDDFATYYCQQYNSLWTFGQGTKVEIK
B14: antibody 264 (antibody, V domains shown)
VH: QVHLVESGGGVVQPGRSLRLSCAASGFTLTSYAMHWVRQAPGKGLEWVALISYDGSVKKYAESVKGRITVSGDNSRNTLHLQINTLRADDTAVYYCVRGGVSGPNSFDLWGQGTMVTVSS
VL: DVVMTQSPLSLPVTLGQPASISCRSSQSLEYSDGNTYVNWFQQRPGQSPRRLIYQVSNRASGVPDRFSGSGSGTDFTLQISRVEAEDVGIYYCMQGTHWPVTFGQGTKVEIK
B15: antibody 266 (antibody, V domains shown)
VH: QVQLVESGGGVVQPGRSLRLSCAASGFNLSNYAMHWVRQPSGKGLEWVSLISYDGSIKYYTDSVKGRFTVSGDNSKNTLFLQMNSLRPDDSALYYCVRGGVSGPNSFDMWGQGTTVTVSS
VL: DVVMTQSPLSLPVTLGQPASISCRSSQSLVYSDGNTYVNWFQQRPGQSPRRLIYQVSIRASGVPDRFSGSGSGTDFALKISRVEAEDVGVYYCMQGTHWPVTFGQGTKVEIK
B16: antibody 303 (antibody, V domains shown)
VH: QVQLVESGGGVVQPGRSLRLSCAASGFNLSSYAMHWVRQASGKGLEWVSLISYDGSIKYYADSVKGRFTVSGDNSKNMLFLQMNSLRADDSALYYCVRGGVSGPNAFDIWGQGTTVTVSS
VL: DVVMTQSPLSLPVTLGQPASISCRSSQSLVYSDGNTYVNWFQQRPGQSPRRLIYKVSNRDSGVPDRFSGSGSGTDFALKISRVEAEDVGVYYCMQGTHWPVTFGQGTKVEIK
B17: antibody 316 (antibody, V domains shown)
VH: QVHLVESGGGVVQPGRSLRLSCAASGFTLTAYAMHWVRQAPGKRLEWVALISYDGSVKKYADSVKGRITVSGDTSTNTLHLQMNSLRADDTAVYYCVRGGVSGPNSFDLWGQGTMVTVSS
VL: DVVMTQSPLSLPVTLGQPASMSCRSSQSLEYSDGNTYVNWFHQRPGQSPRRLIYKVSYRDSGVPDRFSGSGSGTDFTLQISRVEAEDVGIYYCMQGTHWPVTFGQGTKVEIK
B18: antibody 263 (antibody, V domains shown)
VH: EVQLVQSGAEVKKPGATVKISCKVSGYTFTDYYMHWVQQAPGKGLEWMGLVDPEDGETIYAEKFQGRVTITADTSTDTAYMELSSLRSDDTAVYYCTTDLAFTIFGGRRGFDPWGQGTLVTVSS
VL: DIQLTQSPSFLSASVGDRVTITCRASQGISSYLAWYQQKPGKAPKLLIYAASTLQSGVPSRFSGSGSGTEFTLTISSLQPEDFATYYCQQLNSYDFGQGTRLEIK
B19: antibody 294 (antibody, V domains shown)
VH: EVQLVESGGGLVQPGGSLRLSCAASGFTVSSNYMNWVRQAPGKGLEWVSVIYSGGSTYYADSVKGRFTISRDNSKNTLYLQMNSLRAEDTAVYYCARDLGPSGMDVWGQGTTVTVSS
VL: DIQMTQSPSSVSASVGDRVTITCRASQGISSWLAWYQQKPGKAPKLLIYAASSLQSGVPSRFSGSGSGTDFTLTISSLQPEDFATYYCQQANSFPLFGGGTKVEIK
B20: anti-SARS-CoV-2 antibody 1098 (antibody, V domains shown)
VH: DVQLVQSGAEVKKPGESLKISCKGSGYRFTSYWIAWVRQMPGKGLEWMGIIYPGDSDTRYSPSFQGQVTISADKSISTAYLQWSSLKASDTAMYYCASQAAAGYFYYMDVWGKGTTVTVSS
VL: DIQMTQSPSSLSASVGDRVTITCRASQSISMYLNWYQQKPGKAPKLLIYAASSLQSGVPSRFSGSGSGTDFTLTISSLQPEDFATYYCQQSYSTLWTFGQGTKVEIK
B21: anti-SARS-CoV-2 antibody 1118 (antibody, V domains shown)
VH: EVQLVESGGGLVQPGGSLRLSCAASGFRFSNYEMNWVRQAPGKGLEWVSYISSTGGSIFYADSVKGRFTISRGDAKNSVYLQMNSLRAEDTAVYYCARAMYYYGSGTLDYWGQGTLVTVSS
VL: DIQMTQSPSSLSASVGDRVTITCRASQSISRFLNWYQQKPGTAPKLLIYDVSSLQSGVPTRFSGSGSGTDFTLTISSLQPEDFATYYCQQSYTTPPAFGPGTRVDIK
B22: antibody 260 (antibody, V domains shown)
VH: EVQLVESGGGLVQPGRSLRLSCAASGFTFDYYAMHWVRQAPGKGLEWVSGISWNSGTIGYADSVKGRFTISRDNAKNSLYLQMNSLRAEDTALYYCAKDSRPSGRYYYGMDVWGQGTTVTVSS
VL: not shown

Experiments:
[1] = molecular target: SARS-CoV-2 spike protein (wild type), spike protein trimer (SARS-CoV-2, UniProt P0DTC2 14-1208)
[2] = molecular target: SARS-CoV-2 full-length spike protein on pseudotyped lentivirus (SARS-CoV-2, UniProt P0DTC2 14-1273); assay: cell-based or functional assay
[3] = molecular target: SARS-CoV-2 full length spike protein (wild type) (SARS-CoV-2, UniProt P0DTC2 14-1273)

| Binder | Kd [1] [nM] | Pseudo-neutralization IC50 [2] [µg/mL] | median fluorescence intensity, fold over isotype control [3] [fold over isotype] |
| --- | --- | --- | --- |
| B1 | 0.168 | 0.17 |  |
| B2 | 0.035 | 0.093 |  |
| B3 |  |  | 9.24 |
| B4 |  |  | 9.67 |
| B5 |  |  | 24.3 |
| B6 |  |  | 11.2 |
| B7 |  |  | 24.3 |
| B8 |  |  | 21.4 |
| B9 |  |  | 29.7 |
| B10 | 0.276 | 0.022 |  |
| B11 | 0.302 | 0.02 |  |
| B12 |  |  | 16.9 |
| B13 |  |  | 9.71 |
| B14 |  |  | 10.3 |
| B15 |  |  | 10.3 |
| B16 |  |  | 9.59 |
| B17 |  |  | 10.7 |
| B18 |  |  | 22.5 |
| B19 |  |  | 22.2 |
| B20 | 0.173 | 0.087 |  |
| B21 | 0.223 | 0.026 |  |
| B22 |  |  | 10.3 |

Source: patent US20210292393A1 (published 2021)
